Assay: yeast display, Sf9 membrane polyspecificity reagent, FACS + sequencing; frameworks hold sequencing errors
In short: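 A synthetic nanobody library was expressed on Saccharomyces cerevisiae BJ5465 by galactose induction for 36–48 hours. The library was stained for 1 hour at 4 °C with 10% biotinylated, detergent-solubilized Sf9 membrane reagent and enriched with streptavidin microbeads before FACS. Low and high (top ~1%) gates were set on anti-HA fluorescence for expression and streptavidin fluorescence for reagent binding, and each polyreactivity label reflects the gate of origin.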

QVQLVESGGGLVQAGGSLPLSCAASGRIFWDYDMGRYRQAHGKERELVAVITFSGDSTYYADSVKGRFTISRDNAKNTVYLQMNSLKPEDTAVYYCASARAIRQFWYVATFEYWGQGTQVTVSS
polyreactivity (PSR sort gate): low polyreactivity

QVQLVESGGGLVQAGGSLRLSCAASGFTFRRYAMGRYRQAPGKERELVAAISRSTGSTYYADSVKGRFSLSRDNAKNSVYLQMNSLKPEDTAVFYCNVAGSARVNTLVLSYEYWGQGSQVTVSS
polyreactivity (PSR sort gate): high polyreactivity

QVQLVESGGGLVQAGGSLRLSCAASGSIIRGNAMGWYRQAPGKERELVAAISKRGGSTYYADSVKGRFTISRDNAKNTVYLQMNSLKPEDTAVYYCASDLPAALGFDYWGQGTQVTVSS
polyreactivity (PSR sort gate): high polyreactivity

QVQLVESGGGLVQAGGSLRLSCAASGNIFVGNAMGWYRQAPGKERELVAAIRRSGGTTYYADSVKGRFTISRDIAKNTVYIQMNSLKPEDTAVYYSAASRPYQGDYWGQGTQVTVSS
polyreactivity (PSR sort gate): low polyreactivity

QVQLVESGGGLVQAGGSLRLSCAASGSIFVYNAMGWYRPAPGKERELVAGITLIGGSTYYADSVKGRFTISRDNAKNTVYLQMNSLKPEDTAVYYCAVLVVGSTTQDEPYFSGVEHDYWGQGTQVTVSS
polyreactivity (PSR sort gate): low polyreactivity

QVQLVESGGGLVQAGGSLRLSCAASGSIFARYAMGWYRQAPGKERELVAAIDQSAGSTYYADSVKGRFTISRDNAKNTVYLQMNSLKPEDTAVYYCNADYWYWWVITYVGPGLGYWGQGTQVTVSS
polyreactivity (PSR sort gate): high polyreactivity

QVQLVESGGGLVQAGGSLRLSCAASGSTFPPNAMGWYRQAPGKERELVAVISYTSGRTYYADSVKGRFTISRDNAKNTVYLQMNSLKPEDTAVYYCNKRVLYRQRGFNYWGQGTQVTVSS
polyreactivity (PSR sort gate): high polyreactivity

QVQLVESGGGLVQAGGSLRLSCAASGLTFDVYTMGWYRQAPGKERELVATISETYYADSVKGRFTISRDNAKNTVYLQMNSLKPEDTAVYYCAANGFKAQYRDIVYDYGYWGQGTQVTVSS
polyreactivity (PSR sort gate): low polyreactivity

QVQLVESGGGLVQAGGSLRLSCAASGSNFRPYAMGWYRQAPGKERELVAAISSSGGSTYYADSVKGRFTISGDNAKHTVYLQMNSLKPEDTAVYYCAKDGVSFYWLNKYYYWGQGTQVTVSS
polyreactivity (PSR sort gate): low polyreactivity

QVQLVESGGGLVQAGGILRLSCAASGIIYQRNAMGCYRQAPGKERQLVASITAGGDTTYYADSVKGRFTISRDNAKNTVYLQMNSLKPEDTAVYYCAVDSWLDDDDSYPDSILVDYWGQGTQVTVSS
polyreactivity (PSR sort gate): low polyreactivity

QVQLVESGGGLVQAGGSLRLSCAASGLTIQRNDMGWYRQAPGKEREFVATITSNAGSTYYADSVKGRFTISRDNAKNTVYLQMNSLKPEDTAVYYCARERWWGGSDYWGQGTQVTVSS
polyreactivity (PSR sort gate): high polyreactivity

QVQLVESGGGLLQAGGSLRISCAASGSTFGVYAMGWYIPAPGKERELVAVIRRGGGTDYADSVKGRYTISRDNAKNTVYLQLDSLIPVDTAVYSCAATVVRTGYLTLEMDYWGQGTQVTVSA
polyreactivity (PSR sort gate): low polyreactivity

QVQLVESGGGLVQAGGSLRLSCAASGYIFSYYTMGLYRQAPGKERELVASNRWGGGRTYYADSVKGRFTISRDNAKNTVYLQMNSLKPEDTAVYYCNVKSSRLLDVGRMEYWGQGTQVTVSS
polyreactivity (PSR sort gate): high polyreactivity

QVQLEESGGGLVQAGGSLRLSCAASGFTFIRYAMGWYRQAPGTERELVAAIRGTGTSTYYADSVKGRFTISRDNAKNTVYLQMNSLKPEDTAVYYCNKVAGRSPYTRYDYWGQGTQVTVSS
polyreactivity (PSR sort gate): low polyreactivity

QVQLVESGGGLVQAGGSLRLSCAASGRTFTRYAMGWSRQAPGKERELVAAITSTGSTYYADSVKGRFTISRDNAKNTVYLQMNSLKPEDTAVYYCNKVGIRYYYGYDYWGQGTQVTVSS
polyreactivity (PSR sort gate): high polyreactivity

QVQLVESGGGLVQAGGSLRLSCAASGRIFAYNAMGWYRQAPGKERELVAAITRSGGSTYYADSVKGRFTISRDNAKNTVYLQMNSLKPEDTAVYYCAKRYSYYIDDYWGQGTQVTVSS
polyreactivity (PSR sort gate): low polyreactivity

QVQLVESGGGLVQAGGSLRLSCAASGSIFGRNTMGWYRQAPGKERELVAAISRSGGSTYYADSVKGRFTISRDNAKNTVYLQMNSLKPEDSAVYYCAARGKYDYSGVSFNYWGQGTQVTVSS
polyreactivity (PSR sort gate): high polyreactivity

QVQLVESGGGLVQAGGILRLSCAASGNIFESYGMGWYRQAPGKERELVAANSYSGGTTYYADSVKGRFTFSRDNEKNTVYLQMNSLKPEDTAVYYCAARLHHFFTYDYWGQGTQVTVSS
polyreactivity (PSR sort gate): low polyreactivity

QVQLVESGGGLVQAGGSLRLSCAASGFIFSVYAMGWYRQAPGTEREFVAAIRWSGGSTYYADSVKGRFTISRDNAKNTVYLQMNSLKPEDTAVYYCAARARDHYGYWGQGTQVTVSS
polyreactivity (PSR sort gate): high polyreactivity

QVQLLESGGGLVQAGGSLRLSCAASGRTFTRNAMGWNRQAPGKERELVATIRYSTGTTYYADSVKGRFTISRDNAKNTVYLQMNSLKPEDTAVYYCAARVYRYRGYDSWGKGTQVTVSS
polyreactivity (PSR sort gate): high polyreactivity

QVQLVESGGGLVQAGGSLRLSCAASGFTFYRNAMGWYRQAPGKERELVAAISRGGRTYYADSVKGRFTISRDNAKNTVYLQMNSLKPEDTAVYYCAVGYSGYGSSMDYWGQGTQVTVSS
polyreactivity (PSR sort gate): high polyreactivity

QVQLVESGGGLVQAGGSLRLSCAASGSNFKSNAMGLYRPAPGKERELVAAINRSGAGTYYADSVKGRFTISRDNAKNTVYLQMNSLKPEDTAVYYCAAQSYSRRYDYWGQGTQVTVSS
polyreactivity (PSR sort gate): high polyreactivity

QVQLVESGGGLVQAGGSLRLSCAASGSIYDYNTMGWYRQAPGKERELVAAISASGGRTYYADSEKGRFTISRDNAKNTVYLQMNSLKPEDTAVYYCARYYIGYYERFGYDYWGQGTQVTVSS
polyreactivity (PSR sort gate): high polyreactivity

QVQLVESGGGLVQAGGSLRLICAASGRTLRRYAMGWYRQAPGKERELVAAISRSGSSTYADSVKGRFTISRDNAKNTVYLQMHSLKPEDTAVYYCNAYQPRYGYWGQGTQVTVSS
polyreactivity (PSR sort gate): high polyreactivity

QVQLVESGGGLVQAGGSLRLSCAASGIIFDEYAMGWYRQAPGKEMELVAGITIGGSTNYADSVKGRLTISRDNAKNTVYLQMNSLKPEDTAVYYCDYLGQGTQVTVSS
polyreactivity (PSR sort gate): low polyreactivity

QVQLVESGGGLVQAGGSLRLSCAASGSTFYYNAMGWYRQAPGKERELVADISWRGGITYYADSVKGRFTISRDNAKNTVYLQMNSLKPEDTAVYYCNADAESFDDGYWGQGTQVTVSS
polyreactivity (PSR sort gate): low polyreactivity

QVQLVESGGGLVQAGGSLRLSCAASGRIFKRYAMGWSRQAPGKDRELVATITTSGDSTYYADSVKGRFTISRDNAKNTVYLQMNSLKPEDTAVYDCAARSYRGRRYDYWGQGTQVTVSS
polyreactivity (PSR sort gate): high polyreactivity

QVQLVESGGGLVQAGGSLRLSCAASGIIFSSYAMGWYRQAPGKERELVAAISWSGGSTYYADSVKGRFTISRDNAKNTVYLQMNSLKPEDTAVYYCAAYPVWYYEYDYWGQGTQVTVSS
polyreactivity (PSR sort gate): low polyreactivity

QVQLVESGGGLVQAGGSLRLSCAPSGRIFKYNAMGWYRQAPGKERELVAAITSSGASTYYADSVKGRFTISRDIAKHTVYLQMNSLKPVVTAVYYCAARARRKYDYWGQGTQVTLSS
polyreactivity (PSR sort gate): high polyreactivity

QVQLEESGGGLVQAGGSLRLSCAASGIIFILYTMGWYRQAPGKERELVATISSGGGSTFYADSVKGRFTISRDNAKNTVYLQMNSLKPEDTAVYYCAAEQLYYGERYYIWGYYYWGQGTQVTVSS
polyreactivity (PSR sort gate): low polyreactivity

QIHLVESGGGLVQAGGSLRLSCAASGGIFYINAMGWYRQAPGKEREFVAAITESSDITYYADSVKGRFTISRDNAKNTVYLQMNSLKPEDSAVYYCAAEFVRSGDDYWGQGTQVTVSS
polyreactivity (PSR sort gate): low polyreactivity

QVQLVESGGGLDQAGGSLRLICAASGRTFYYNVMGWYRQAPGKERELVAAISTGVSTNYADSVKGRFTISRDNAKNTVYLQMNSQKPEDTAVYYCNSRSYRWYRPVYRYDYWGQGTQVTVSS
polyreactivity (PSR sort gate): high polyreactivity
